Reference: US20220403022A1 (Merck KGaA, published 2022)
Residue numbers refer to the chain shown, from its start. Several values for one entry are separate records, joined by “and”; a condition that tells them apart may be missing. Identical values can stand only once.

B1: 3963H03 (antibody, human IgG1, kappa, V domains shown)
VH: EIQLVQSGSELKKPGASVKVSCKASGYTFTSYPMNWVRQAPGQGLEWMGWINTNTGNPTYAQGFTGRFVFSLDTSVSTAYLQISSLKAEDTAVYYCARVGGYSVDEYAFDVWGQGTMVTVSS
VL: AIRLTQSPSFLSASVGDRVTITCRASQGISSYLAWYQQKPGKAPKLLIYAASTLQSGVPSRFSGSGSGTEFTLTISSLQPEDFATYYCQQLNSYPTFGGGTKVEIKR
notes: fully human IgG1 kappa, B-cell cloning hit from OmniRat; also called 3963H03 VH; 3963H03 VK
B2: 7729G05 (antibody, V domains shown)
VH: B1 VH with E1Q, I2V, Y102F, S103T, D105P, V111I, M117T
VL: DIRLTQSPSFLSASVGDRVTITCRASQGISSYLAWYQQKPGKAPKLLIYAASTLQSGVPSRFSGSGSGTEFTLTISSLQPEDFATYYCGQVMRYPAFGGGTKVEIK
notes: constant regions correspond to those of H03-12
B3: 7728B03 (antibody, V domains shown)
VH: B1 VH with E1Q, I2M, V99T, A108S, V111I, M117T
VL: B2 VL with R3Q, G89H, V91T, M92I, R93F, Y94R, A96T
notes: as for B2
B4: 3964A06 (antibody, human IgG1, V domains shown)
VH: B1 VH with I2V, S31A, D105Y, E106D, V111I
VL: B2 VL with R3Q, G89Q, V91L, M92N, R93S, A96T
B5: 3963H03-12-muIgG2c (antibody, V domains shown)
VH: B1 VH with E1Q, I2V, M117L
VL: B2 VL with R3Q, G89Q, V91L, M92S, R93S, A96T
notes: also called version of 3963H03-12 with a murine immunoglobulin
B6: 3966C11 (antibody, human IgG1, V domains shown)
VH: B1 VH with Y60N, S103G, V104G, D105Y, E106D, V111I
VL: B2 VL with R3Q, G89Q, V91L, M92N, R93S, A96T, V103L
notes: constant regions correspond to those of H03-12 (human IgG1, kappa)
B7: 3965D08 (antibody, human IgG1, V domains shown)
VH: EVQLVQSGSELKKPGASVKVSCKASGYTFTSYPMNWVRQAPGQGLEWMGWINTNTGNPTYAQGFTGRFVFSLDTSVSTAYLQISSLKAEDTAVYYCARTGYSGSYYWFDPWGQGTLVTVSS
VL: B2 VL with L46F, G89Q, V91L, M92N, R93S, P95L, A96T, G99Q, K102R, V103L
notes: as for B6

Columns and labels:
[1] = biological target: T1, human TIGIT on cells (primary T cells, transfected HEK293 cells, Jurkat reporter cells, NK cells) (human, UniProt Q495A1 22-244); assay: cell-based or functional assay
T1 sequence: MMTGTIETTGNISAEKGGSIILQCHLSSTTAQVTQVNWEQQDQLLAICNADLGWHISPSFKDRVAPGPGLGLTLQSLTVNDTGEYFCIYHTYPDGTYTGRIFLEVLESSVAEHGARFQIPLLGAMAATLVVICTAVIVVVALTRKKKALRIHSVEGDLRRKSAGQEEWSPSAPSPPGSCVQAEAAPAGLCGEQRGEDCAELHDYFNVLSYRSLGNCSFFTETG

[2] = biological target: T2, cynomolgus monkey TIGIT ECD expressed on the CHO-S cell surface (cynomolgus monkey); assay: flow cytometry on CHO-S cells expressing cyno TIGIT ECD
T2 construct: extracellular domain; also called CHO-S-cynoTIGIT

His-tagged human TIGIT [3] = biological target: T3, His-tagged human TIGIT (human, UniProt Q495A1 22-141); assay: SPR, IgG captured on anti-human Fc, His-tagged human TIGIT injected
T3 construct: soluble analyte in SPR
T3 sequence: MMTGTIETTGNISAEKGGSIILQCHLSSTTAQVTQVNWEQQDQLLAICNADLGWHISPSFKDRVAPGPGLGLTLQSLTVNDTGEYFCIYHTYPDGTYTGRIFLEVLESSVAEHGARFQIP

PD-L1 = biological target: T4, PD-L1 (UniProt Q9NZQ7 19-238, limits assumed); assay: ELISA EC50 assay
T4 construct: also called unrelated protein PD-L1
T4 sequence (Q9NZQ7 19-238 limits assumed): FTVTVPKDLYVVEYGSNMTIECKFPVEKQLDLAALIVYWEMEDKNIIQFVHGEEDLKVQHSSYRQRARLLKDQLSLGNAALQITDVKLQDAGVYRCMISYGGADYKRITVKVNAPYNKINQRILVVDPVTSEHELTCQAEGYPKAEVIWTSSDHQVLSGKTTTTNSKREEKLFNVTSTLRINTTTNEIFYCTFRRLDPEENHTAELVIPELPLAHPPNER

CD226 = biological target: T5, CD226 (UniProt Q15762 19-247, limits assumed); assay: ELISA EC50 assay
T5 construct: also called related family member protein CD226
T5 sequence (looked up): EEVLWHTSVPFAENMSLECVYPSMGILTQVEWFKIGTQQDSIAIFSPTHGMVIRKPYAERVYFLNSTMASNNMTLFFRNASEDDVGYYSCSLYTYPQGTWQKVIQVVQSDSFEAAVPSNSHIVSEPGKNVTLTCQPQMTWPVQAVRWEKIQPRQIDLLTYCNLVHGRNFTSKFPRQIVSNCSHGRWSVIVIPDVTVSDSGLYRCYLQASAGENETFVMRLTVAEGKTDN

[4] = biological target: T6, human TIGIT ECD expressed on the CHO-S cell surface (human, UniProt Q495A1 22-141); assay: cell-based or functional assay
T6 sequence: T3 sequence

[5] = biological target: T6, human TIGIT ECD expressed on the CHO-S …; assay: flow cytometry on CHO-S cells expressing human TIGIT ECD
[6] = biological target: T7, His-tagged cynomolgus monkey TIGIT (cynomolgus monkey, UniProt A0A7N9I9V4 89-209); assay: SPR Biacore, antibody captured on anti-human Fc, His-tagged TIGIT injected
T7 construct: also called Cyno TIGIT; cynomolgus monkey TIGIT (Novoprotein cat. No. CP02)
T7 sequence (A0A7N9I9V4 entry or part of it): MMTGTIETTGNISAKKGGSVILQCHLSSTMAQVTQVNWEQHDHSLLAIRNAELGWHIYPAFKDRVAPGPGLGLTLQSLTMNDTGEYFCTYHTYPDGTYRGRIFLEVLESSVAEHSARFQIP

His-tagged human TIGIT [7] = biological target: T3, His-tagged human TIGIT; assay: as above
His-tagged human TIGIT [8] = biological target: T3, His-tagged human TIGIT; assay: SPR, IgG captured on anti-human Fc, His-tagged human TIGIT injected; remark: listed apart in the source
[9] = biological target: T6, human TIGIT ECD expressed on the CHO-S …; assay: flow cytometry on CHO-S cells expressing human TIGIT ECD; remark: listed apart in the source
[10] = biological target: T2, cynomolgus monkey TIGIT ECD expressed …; assay: flow cytometry on CHO-S cells expressing cynomolgus monkey TIGIT ECD
[11] = biological target: T6, human TIGIT ECD expressed on the CHO-S …; assay: flow cytometry blocking assay on CHO-S-hTIGIT cells, competitor muCD155-Fc; competitor muCD155-Fc; muIgG2c version
[12] = biological target: T6, human TIGIT ECD expressed on the CHO-S …; assay: flow cytometry blocking assay on CHO-S-hTIGIT cells, competitor muCD112; competitor muCD112; muIgG2c version

Row | Binder | EC50 [1] [µg/mL] | EC50 [2] [nM] | koff (His-tagged human TIGIT [3]) [s⁻¹] | binding result (PD-L1) | binding result (CD226) | ADCC EC50, nM (Donor 1005-4464) [4] [nM] | ADCC EC50, nM (Donor 1102-7215) [4] [nM] | ADCC EC50, nM (Donor 1106-0557) [4] [nM] | EC50 [5] [nM] | Kd [6] | koff [6] [s⁻¹] | kon [6] [M⁻¹ s⁻¹] | Kd (His-tagged human TIGIT [7]) | koff (His-tagged human TIGIT [7]) [s⁻¹] | kon (His-tagged human TIGIT [7]) [M⁻¹ s⁻¹] | koff (His-tagged human TIGIT [8]) [s⁻¹] | EC50 (read off the curve) [9] [nM] | EC50 (read off the curve) [10] [nM] | IC50 [11] [µg/mL] | IC50 [12] [µg/mL]
1 | B1 | 6.3 | 3.6 | 0.00063 | no binding | no binding | 0.028 | 0.069 | 0.08 | 4.7 | 1.45 nM and 1.5 nM | 0.000213 | 147000 | 3.37 nM and 3.4 nM | 0.000407 | 121000 | 0.00063 |  |  |  | 
2 | B2 |  |  |  |  |  |  |  |  |  | 0.0211 nM and < 0.05 nM | 1.23e-05 | 581000 | 0.0173 nM and < 0.05 nM | 1.33e-05 | 767000 |  |  |  |  | 
3 | B3 |  |  |  |  |  |  |  |  |  | 0.0519 nM and 0.05 nM | 1.57e-05 | 303000 | 0.0661 nM and 0.07 nM | 2.15e-05 | 325000 |  |  |  |  | 
4 | B4 |  |  |  | no binding | no binding |  |  |  |  | 1.11 nM and 1.1 nM | 0.000122 | 109000 | 2.62 nM and 2.6 nM | 0.000233 | 89100 |  | ~9 | ~8 |  | 
5 | B5 |  |  |  |  |  |  |  |  |  |  |  |  |  |  |  |  |  |  | 0.291 | 1.19
6 | B6 |  |  |  | no binding | no binding |  |  |  |  | 1.41 nM and 1.4 nM | 0.000167 | 118000 | 2.53 nM and 2.5 nM | 0.000274 | 108000 |  | ~9 | ~7 |  | 
7 | B7 |  |  |  | no binding | no binding |  |  |  |  | 8.66 nM and 8.7 nM | 0.00565 | 653000 | 10.3 nM | 0.00497 | 482000 |  | ~5 | ~3 |  | 
